# Measurements from patent US20130116195A1, “Binding ligand linked drug delivery conjugates of tubulysins” (priority 2009, published 2013).
# “Also recorded” adds a separate entry of the source.
# Experiments:
# [1] = test system: folate receptor-positive KB cells; test: Inhibition of Cellular DNA Synthesis (3H-thymidine incorporation cytotoxicity assay); format: cell-based; conditions: 2 hour pulse and 72 hour chase
# Procedure: METHOD: Inhibition of Cellular DNA Synthesis. The compounds described herein were evaluated using an in vitro cytotoxicity assay that predicts the ability of the drug to inhibit the growth of folate receptor-positive KB cells. The compounds were comprised of folate linked to a respective chemotherapeutic drug, as prepared according to the protocols described herein. The KB cells were exposed for up to 7 h at 37° C. to the indicated concentrations of folate-drug conjugate in the absence or presence of at least a 100-fold excess of folic acid. The cells were then rinsed once with fresh culture medium and incubated in fresh culture medium for 72 hours at 37° C. Cell viability was assessed using a ^3H-thymidine incorporation assay. For compounds described herein, dose-dependent cytotoxicity was generally measurable, and in most cases, the IC50 values (concentration of drug conjugate required to reduce ^3H-thymidine incorporation into newly synthesized DNA by 50%) were in the low nanomolar range.
# METHOD: In vitro test against the various cancer cell lines. Cells are heavily seeded in 24-well Falcon plates and allowed to form nearly confluent monolayers overnight. Thirty minutes prior to the addition of the test compound, spent medium is aspirated from all wells and replaced with fresh folate-deficient RPMI medium (FFRPMI). A subset of wells are designated to receive media containing 100 μM folic acid. The cells in the designated wells are used to determine the targeting specificity. […] Following one rinse with 1 mL of fresh FFRPMI containing 10% heat-inactivated fetal calf serum, each well receives 1 mL of medium containing increasing concentrations of test compound (4 wells per sample) in the presence or absence of 100 μM free folic acid as indicated. Treated cells are pulsed for 2 h at 37° C., rinsed 4 times with 0.5 mL of media, and then chased in 1 mL of fresh medium up to 70 h. Spent medium is aspirated from all wells and replaced with fresh medium containing 5 μCi/mL ^3H-thymidine. Following a further 2 h 37° C. incubation, cells are washed 3 times with 0.5 mL of PBS and then treated with 0.5 mL of ice-cold 5% trichloroacetic acid per well. After 15 min, the trichloroacetic acid is aspirated and the cell material solubilized by the addition of 0.5 mL of 0.25 N sodium hydroxide for 15 min. A 450 μL aliquot of each solubilized sample is transferred to a scintillation vial containing 3 mL of Ecolume scintillation cocktail and then counted in a liquid scintillation counter. Final tabulated results are expressed as the percentage of ^3H-thymidine incorporation relative to untreated controls.
# [2] = Serum binding (30K NMWL filtration/HPLC-UV), human serum; format: in vitro ADME; conditions: for fraction unbound: human, 50 μM test article concentration in serum, n = 3, read-out: Human Serum % Bound (converted)
# Procedure: (§1) METHOD: Serum binding against different species. Compounds are tested with 30K NMWL, subjected to Microcon filtration (10,000 g for 30 minutes), and compounds are detected by HPLC. […] There was two times the amount of free EC0531 in serum compared to EC0305.
# [3] = Serum binding (30K NMWL filtration/HPLC-UV), mouse serum; format: in vitro ADME; conditions: 50 μM test article concentration in serum, n = 3, read-out: Mouse Serum % Bound (converted)
# Procedure: as §1
# [4] = Toxicity as measured by weight loss; format: in vivo, mice; conditions: for tolerability (percent weight change): FIG. 6, 3 μmol/kg TIW, female mice
# Procedure: METHOD: Additional In vivo antitumor method. Four to six week-old female nu/nu mice (Charles River, Wilmington, Mass.) were maintained on a standard 12 h light-dark cycle and fed ad libitum with folate-deficient chow (Harlan diet #TD00434, Harlan Teklad, Madison, Wis.) for the duration of the experiment. KB cells (1×10^6 per nu/nu mouse) in 100 μL were injected in the subcutis of the dorsal medial area. Mice were divided into groups of five, and test articles were freshly prepared and injected through the lateral tail vein under sterile conditions in a volume of 200 μL of phosphate-buffered saline (PBS). Intravenous (i.v.) treatments were typically initiated on approximately 9 post-tumor cell implantation when the KB tumors were approximately 100-200 mm^3 in volume. The mice in the control groups received no treatment. Growth of each s.c. tumor was followed by measuring the tumor three times per week during treatment and twice per week thereafter until a volume of 1500 mm^3 was reached. Tumors were measured in two perpendicular directions using Vernier calipers, and their volumes were calculated as 0.5×L×W^2, where L=measurement of longest axis in mm and W=measurement of axis perpendicular to L in mm. As a general measure of toxicity, changes in body weights were determined on the same schedule as tumor volume measurements. Survival of animals was monitored daily. Animals that were moribund (or unable to reach food or water) were euthanized by CO2 asphyxiation. All in vivo studies were performed in accordance with the American Accreditation Association of Laboratory Animal Care guidelines.
# METHOD: Toxicity as Measured by Weight Loss. The percentage weight change of the mice was determined in mice (5 mice/group) on selected days post-tumor inoculation (PTI), and graphed.
# [5] = test system: subcutaneous KB tumors; test: KB tumor assay, inhibition of tumor growth in mice; format: in vivo, nu/nu mice; conditions: FIG. 3A; 0.5, 0.75, 1 μmol/kg; tolerable and highly toxic dose levels
# Procedure: METHOD: Inhibition of Tumor Growth in Mice. Four to seven week-old mice (Balb/c or nu/nu strains) were purchased from Harlan Sprague Dawley, Inc. (Indianapolis, Ind.). Normal rodent chow contains a high concentration of folic acid (6 mg/kg chow); accordingly, mice used were maintained on the folate-free diet (Harlan diet #TD00434) for 1 week before tumor implantation to achieve serum folate concentrations close to the range of normal human serum. For tumor cell inoculation, 1×10^6 M109 cells (Balb/c strain) or 1×10^6 KB cells (nu/nu strain) in 100 μL were injected in the subcutis of the dorsal medial area. Tumors were measured in two perpendicular directions every 2-3 days using a caliper, and their volumes were calculated as 0.5×L×W^2, where L=measurement of longest axis in mm and W=measurement of axis perpendicular to L in mm. […]
# METHOD: General KB Tumor Assay. The anti-tumor activity of the compounds described herein, when administered intravenously (i.v.) to tumor-bearing animals, was evaluated in nu/nu mice bearing subcutaneous KB tumors. […] Tumor growth was measured using calipers at 2-day or 3-day intervals in each treatment group. Tumor volumes were calculated using the equation V=a×b^2/2, where “a” is the length of the tumor and “b” is the width expressed in millimeters.
# METHOD: Additional In vivo antitumor method. […] Survival of animals was monitored daily. […]
compound,measurement,setting,value
CCCC(=O)OCN(C(=O)[C@@H](NC(=O)[C@H]1CCCCN1C)C(C)CC)[C@H](C[C@@H](OC(C)=O)c1nc(C(=O)N[C@@H](Cc2ccc(O)cc2)C[C@H](C)C(=O)NNC(=O)OCCSSC[C@H](NC(=O)[C@H](CCC(=O)NC[C@H](O)[C@@H](O)[C@H](O)[C@H](O)CO)NC(=O)[C@H](CCC(=O)O)NC(=O)[C@H](CCC(=O)NC[C@H](O)[C@@H](O)[C@H](O)[C@H](O)CO)NC(=O)[C@H](CCC(=O)O)NC(=O)[C@H](CCC(=O)NC[C@H](O)[C@@H](O)[C@H](O)[C@H](O)CO)NC(=O)CC[C@H](NC(=O)c2ccc(NCc3cnc4nc(N)[nH]c(=O)c4n3)cc2)C(=O)O)C(=O)O)cs1)C(C)C (stereo partly drawn) [EC0531],cytotoxic activity in the presence of an excess of a folate-fluorescein conjugate,[1],blocked
same,cytotoxic activity in the presence of an excess of folic acid,[1],blocked
same,fraction unbound,[2],0.38
same,amount of free conjugate in serum compared to EC0305,[2]; serum binding assay,two times
same,fraction unbound,[3],0.503
same,weight loss or major organ tissue degeneration,"[4]; FIG. 4B, 1, 2, 3 μmol/kg TIW two weeks",apparent absence of weight loss or major organ tissue degeneration
same,tolerability (percent weight change),[4],well tolerated; also recorded: safe and tolerable
CCCC(=O)OCN(C(=O)[C@@H](NC(=O)[C@H]1CCCCN1C)C(C)CC)[C@H](C[C@@H](OC(C)=O)c1nc(C(=O)N[C@@H](Cc2ccc(O)cc2)C[C@H](C)C(=O)NNC(=O)OCCSSC[C@H](NC(=O)[C@H](CC(=O)O)NC(=O)[C@H](CCCNC(=N)N)NC(=O)[C@H](CC(=O)O)NC(=O)CC[C@H](NC(=O)c2ccc(NCc3cnc4nc(N)[nH]c(=O)c4n3)cc2)C(=O)O)C(=O)O)cs1)C(C)C (stereo partly drawn) [EC0305],fraction unbound,[2],0.207
same,fraction unbound,[3],0.362
same,tolerability (percent weight change),[4],not well tolerated; also recorded: exceeded MTD
CCCC(=O)OCN(C(=O)[C@@H](NC(=O)[C@H]1CCCCN1C)C(C)CC)[C@H](C[C@@H](OC(C)=O)c1nc(C(=O)N[C@@H](Cc2ccc(O)cc2)C[C@H](C)C(=O)NNC(=O)OCCSSC[C@H](NC(=O)[C@H](CCC(=O)NC[C@H](O)[C@@H](O)[C@H](O)[C@H](O)CO)NC(=O)[C@H](CCC(=O)O)NC(=O)[C@H](CCC(=O)NC[C@H](O)[C@@H](O)[C@H](O)[C@H](O)CO)NC(=O)[C@H](CCC(=O)NC[C@H](O)[C@@H](O)[C@H](O)[C@H](O)CO)NC(=O)[C@H](CCC(=O)O)NC(=O)[C@H](CCC(=O)NC[C@H](O)[C@@H](O)[C@H](O)[C@H](O)CO)NC(=O)CC[C@H](NC(=O)c2ccc(NCc3cnc4nc(N)[nH]c(=O)c4n3)cc2)C(=O)O)C(=O)O)cs1)C(C)C (stereo partly drawn) [EC0530],cytotoxic activity in the presence of an excess of a folate-fluorescein conjugate,[1],blocked
CCC(C)[C@H](NC(=O)[C@H]1CCCCN1C)C(=O)N(COC(=O)CC(C)C)[C@H](C[C@@H](OC(C)=O)c1nc(C(=O)N[C@@H](Cc2ccc(O)cc2)C[C@H](C)C(=O)NNC(=O)OCCSSC[C@H](NC(=O)[C@H](CCC(=O)NC[C@H](O)[C@@H](O)[C@H](O)[C@H](O)CO)NC(=O)[C@H](CCC(=O)O)NC(=O)[C@H](CCC(=O)NC[C@H](O)[C@@H](O)[C@H](O)[C@H](O)CO)NC(=O)[C@H](CCC(=O)O)NC(=O)[C@H](CCC(=O)NC[C@H](O)[C@@H](O)[C@H](O)[C@H](O)CO)NC(=O)CC[C@H](NC(=O)c2ccc(NCc3cnc4nc(N)[nH]c(=O)c4n3)cc2)C(=O)O)C(=O)O)cs1)C(C)C (stereo partly drawn) [EC0543],cytotoxic activity in the presence of an excess of a folate-fluorescein conjugate,[1],blocked
same,observed weight loss,"[4]; FIG. 9, 3 μmol/kg, nu/nu mice with KB tumors",15 to 18%
CCC(C)[C@H](NC(=O)[C@H]1CCCCN1C)C(=O)N(COC(=O)CC(C)C)[C@H](C[C@@H](OC(C)=O)c1nc(C(=O)N[C@@H](Cc2ccc(O)cc2)C[C@H](C)C(=O)NNC(=O)OCCSSC[C@H](NC(=O)[C@H](CCC(=O)NC[C@H](O)[C@@H](O)[C@H](O)[C@H](O)CO)NC(=O)[C@H](CCC(=O)O)NC(=O)[C@H](CCC(=O)NC[C@H](O)[C@@H](O)[C@H](O)[C@H](O)CO)NC(=O)[C@H](CCC(=O)NC[C@H](O)[C@@H](O)[C@H](O)[C@H](O)CO)NC(=O)[C@H](CCC(=O)O)NC(=O)[C@H](CCC(=O)NC[C@H](O)[C@@H](O)[C@H](O)[C@H](O)CO)NC(=O)CC[C@H](NC(=O)c2ccc(NCc3cnc4nc(N)[nH]c(=O)c4n3)cc2)C(=O)O)C(=O)O)cs1)C(C)C (stereo partly drawn) [EC0533],cytotoxic activity in the presence of an excess of a folate-fluorescein conjugate,[1],blocked
CCC(C)[C@H](NC(=O)[C@H]1CCCCN1C)C(=O)N(COC(=O)CC(C)C)[C@H](C[C@@H](OC(C)=O)c1nc(C(=O)N[C@@H](Cc2ccc(O)cc2)C[C@H](C)C(=O)NNC(=O)OCCSSC[C@H](NC(=O)[C@H](CC(=O)O)NC(=O)[C@H](CCCNC(=N)N)NC(=O)[C@H](CC(=O)O)NC(=O)CC[C@H](NC(=O)c2ccc(NCc3cnc4nc(N)[nH]c(=O)c4n3)cc2)C(=O)O)C(=O)O)cs1)C(C)C (stereo partly drawn) [EC0510],tolerability (percent weight change),[4],exceeded MTD
same,tolerability (percent weight change),[4]; listed as EC0310,not well tolerated
"CCCC(=O)OCN(C(=O)[C@@H](NC(=O)[C@H]1CCCCN1C)C(C)CC)[C@H](C[C@@H](OC(C)=O)c1nc(C(=O)N[C@@H](Cc2ccc(O)cc2)C[C@H](C)C(=O)O)cs1)C(C)C (stereo partly drawn) [tubulysin B, reference compound]",responses (animals),[5],0/5
same,toxicity (percent body weight change),"[4]; mouse, in vivo",excessive toxicity
